Assay results as given in patent publication US20090092595A1, “Suppression of sPLA2-integrin binding for treating an inflammatory condition” (REGENTS OF THE UNIVERSITY OF CALIFORNIA, priority 2007, published 2009).

Target: T1, αvβ3 on β3-CHO cells (UniProt A0A9J7JSN3+P05106)
T1 construct: expressed in transfected cells; host or cells: CHO
T1 sequence (P05106 27-788): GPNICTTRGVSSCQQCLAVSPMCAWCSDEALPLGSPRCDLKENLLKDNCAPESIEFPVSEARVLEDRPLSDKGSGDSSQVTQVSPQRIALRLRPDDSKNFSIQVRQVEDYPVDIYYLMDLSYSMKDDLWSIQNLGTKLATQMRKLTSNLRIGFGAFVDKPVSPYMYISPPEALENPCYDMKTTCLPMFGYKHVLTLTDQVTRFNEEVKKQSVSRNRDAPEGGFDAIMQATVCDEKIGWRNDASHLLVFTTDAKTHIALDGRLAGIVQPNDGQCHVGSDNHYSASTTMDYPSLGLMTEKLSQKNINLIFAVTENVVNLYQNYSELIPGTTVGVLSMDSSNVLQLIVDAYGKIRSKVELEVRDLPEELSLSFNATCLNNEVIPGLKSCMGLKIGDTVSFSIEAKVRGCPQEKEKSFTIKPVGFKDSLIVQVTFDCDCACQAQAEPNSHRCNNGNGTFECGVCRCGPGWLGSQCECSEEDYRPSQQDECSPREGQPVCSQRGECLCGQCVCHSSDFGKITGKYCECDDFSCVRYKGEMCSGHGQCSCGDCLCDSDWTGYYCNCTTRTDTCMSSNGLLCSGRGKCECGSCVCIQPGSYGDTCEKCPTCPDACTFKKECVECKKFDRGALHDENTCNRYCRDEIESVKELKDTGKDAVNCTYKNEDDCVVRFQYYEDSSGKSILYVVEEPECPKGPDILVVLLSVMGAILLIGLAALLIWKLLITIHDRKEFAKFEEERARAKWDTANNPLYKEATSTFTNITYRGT
T1 sequence (A0A9J7JSN3 31-1043): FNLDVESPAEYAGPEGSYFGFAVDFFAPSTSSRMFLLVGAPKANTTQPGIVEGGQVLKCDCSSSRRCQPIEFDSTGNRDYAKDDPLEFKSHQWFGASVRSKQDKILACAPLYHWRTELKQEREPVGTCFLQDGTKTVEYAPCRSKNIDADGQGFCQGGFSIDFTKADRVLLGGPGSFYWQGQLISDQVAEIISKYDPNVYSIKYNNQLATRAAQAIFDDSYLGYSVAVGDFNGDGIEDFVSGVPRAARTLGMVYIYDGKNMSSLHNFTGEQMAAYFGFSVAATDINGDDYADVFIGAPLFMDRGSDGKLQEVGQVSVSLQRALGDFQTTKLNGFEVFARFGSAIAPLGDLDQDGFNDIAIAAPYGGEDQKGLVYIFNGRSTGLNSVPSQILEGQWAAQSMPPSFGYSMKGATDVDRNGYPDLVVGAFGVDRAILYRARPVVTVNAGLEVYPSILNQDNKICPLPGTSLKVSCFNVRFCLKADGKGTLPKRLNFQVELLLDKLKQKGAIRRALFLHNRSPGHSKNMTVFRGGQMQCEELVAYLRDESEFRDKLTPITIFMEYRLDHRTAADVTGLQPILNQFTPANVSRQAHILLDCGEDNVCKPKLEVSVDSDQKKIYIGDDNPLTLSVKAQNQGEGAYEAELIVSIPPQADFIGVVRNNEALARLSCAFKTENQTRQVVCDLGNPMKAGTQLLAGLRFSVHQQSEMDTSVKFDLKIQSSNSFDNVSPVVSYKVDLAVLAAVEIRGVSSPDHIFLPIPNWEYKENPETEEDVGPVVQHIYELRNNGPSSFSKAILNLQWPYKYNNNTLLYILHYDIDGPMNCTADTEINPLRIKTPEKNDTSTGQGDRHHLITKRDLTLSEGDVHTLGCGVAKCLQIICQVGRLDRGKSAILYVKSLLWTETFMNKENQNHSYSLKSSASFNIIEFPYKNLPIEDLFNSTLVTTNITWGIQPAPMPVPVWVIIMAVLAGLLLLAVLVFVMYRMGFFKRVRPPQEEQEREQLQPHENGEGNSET
Assay: Binding of FITC-labeled sPLA2-IIA to αvβ3 on the cell surface (flow cytometry)
Format: cell-based, human
Conditions: 10 μg/ml, 10 mM Mg2+, room temperature, 30 min
Source text: FIG. 1. sPLA2-IIA binding to integrin αvβ3. a) Cell adhesion to sPLA2-IIA in an αvβ3- and proteoglycans-dependent manner. Wells of a 96-well microtiter plate were coated with sPLA2-IIA at indicated coating concentrations. Remaining protein-binding sites were blocked with BSA. CHO cells expressing recombinant αvβ3 (β3-CHO), mock-transfected CHO cells, proteoglycans-deficient CHO cell variant (pgs745), expressing recombinant αvβ3 (β3-745), and mock-transfected pgs745 cells (10^5 cells per well in 100 μl Tyrodes-HEPES with 1 mM MgCl2) were added to the wells. After incubating for 1 h at 37° C., unbound cells were removed by gentle rinsing and bound cells were quantified using endogenous phosphatase activity (Prater, C. A. et al., J. Cell Biol., 112:1031-1040 (1991)). Data is shown as means+/−SEM of triplicate experiments. b) Effect of anti-(33 mAb 7E3 on adhesion of β3-CHO cells to immobilized sPLA2-IIA. […] Bound FITC (FL1) and PE (FL2) were quantified in flow cytometry. […] Bound αvβ3 was detected using peroxidase-conjugated anti-6His antibody. Bound peroxidase activity was measured. […]
Binding of FITC-labeled sPLA2-IIA to integrins on the cell surface sPLA2-IIA was labeled with FITC using Fluorescein labeling kit (Pierce) according to the manufacturer's instructions. […] Bound FITC (FL1) and PE (FL2) were quantified in flow cytometry.

B1: FITC-sPLA2-IIA: sPLA2-IIA labeled with FITC using Fluorescein labeling kit (conjugate)
chain: NLVNFHRMIKLTTGKEAALSYGFYGCHCGVGGRGSPKDATDRCCVTHDCCYKRLEKRGCGTKFLSYKFSNSGSRITCAKQDSCRSQLCECDKAAATCFARNKTTYNKKYQYYSNKHCRGSTPRC
modifications: left off: small tags and cut ends
notes: sPLA2-IIA labeled with FITC using Fluorescein labeling kit
binding to cells expressing high-level αvβ3 vs little αvβ3: much higher levels
